{"source": "patent US11925667B2", "about": "“Engineered therapeutic probiotic system and method” (priority 2018, dated 2024)", "key": {"[1]": {"substrate": "C=CC/C(=N/OS(=O)(=O)O)S[C@@H]1O[C@H](CO)[C@@H](O)[C@H](O)[C@H]1O", "experiment": "Myrosinase activity assay (glucose release from sinigrin hydrolysis), BMY1", "type": "biochemical, Brevicoryne brassicae", "description": "Screening for improved β-thioglucosidase. The activity and stability of myrosinase, a β-thioglucosidase that hydrolyzes glucosinolate to sulforaphane, varies at differing pH and temperature; in a preferred embodiment the selected enzyme needs to function under physiological colorectal conditions. The healthy colon pH averages 6.6, while it is 7.0 and 6.7 in patients with adenoma and carcinoma, respectively. In addition, the temperature of the human intestinal tract ranges from 36° C. to 40° C. depending on the individual's metabolic state. In the illustrative example five plant-derived myrosinase orthologues with minimal glycosylation sites and the absence of the co-factor-binding sites using the BLAST search and the Enzyme Function Initiative-Enzyme Similarity Tool (EFI-EST), are compared to the well-characterized myrosinases from Brevicoryne brassicae (BMY1) and Arabidopsis thaliana (TGG1) (FIG. 2a and FIG. 7).\n(§1) Gene cloning, protein expression and purification. Myrosinase genes are optimized for E. coli expression and cloned into the pET28b expression vector. The plasmids are transformed into E. coli BL21 (DE3) cultured in lysogeny broth (LB) (BD, Le Pont de Claix, France) at 37° C., 225 rpm to OD600 0.6 followed by 0.5 mM isopropyl β-D-1-thiogalactopyranoside (IPTG) induction at 16° C., 180 rpm for 16 hours. Cells are harvested, resuspended in lysis buffer (50 mM Tris-Cl, 300 mM NaCl, 10% glycerol, 1 mM dithiothreitol [DTT], pH 8.0) and lysed using Emulsiflex C-3 (Avestin). Expressed myrosinases are purified by IMAC Ni-NTA purification followed by Hi-Load Superdex 200 size exclusion column chromatography (GE, Uppsala, Sweden). The purified protein is concentrated and stored at −80° C. Pilot scale protein purification and enzymatic assay is conducted.\n(§2) Myrosinase screening assay. The enzymatic reaction is measured for the release of glucose resulting from sinigrin hydrolysis. The reaction is conducted in sodium phosphate-buffered solution supplied in the Amplex® Red Glucose/Glucose Oxidase Assay Kit (Thermo Fisher Scientific, Geel, Belgium). The reaction buffer is prepared at different pH values (6.0, 6.5, 7.4 and 8.0) and at different reaction temperatures (34° C., 37° C., and 40° C.). The reaction is prepared using 0.1 μM purified myrosinase added to 1× Amplex® Red Glucose Assay reaction mixture and was kick-started with the corresponding concentration of sinigrin. The reaction can be measured at 560 nm absorbance and fluorescence (λex=540 nm, λem=590 nm) using a Synergy H1 Multi-Mode microtiter plate reader (BioTek®, Winooski, USA). The reaction initial velocity (VO) is determined and fitted into a Michaelis-Menten curve. Vmax and KM are determined by fitting into the Michaelis-Menten equation (Eq. 1) using GraphPad Prism Software. ^v=Vmax*[Sinigrin]/(KM+[Sinigrin]) (Eq.1)\n(§3) Table S1|Myrosinase activity assay screening under various pH and temperature conditions (n=3 independent experiments, each measurement performed in triplicates; mean[…].)."}, "[2]": {"substrate": "C=CC/C(=N/OS(=O)(=O)O)S[C@@H]1O[C@H](CO)[C@@H](O)[C@H](O)[C@H]1O", "experiment": "Myrosinase activity assay (glucose release from sinigrin hydrolysis), I1", "type": "biochemical, Armoracia rusticana", "description": "In a preferred embodiment, the myrosinases derived from Armoracia rusticana (I1) and Brassica oleacea (A6) have a better stability and catalytic efficiency in various temperatures and pH values when compared with those derived from BMY1 and TGG1 (Table 1). In a preferred illustrative embodiment I1 myrosinase is selected owing to its Km value and improved kcat at the colorectal ambient temperature and pH (FIG. 2c, 2d and Table 1). By comparing the modeled-I1 myrosinase protein structure against that of the BMY1 myrosinase, the critical side chain residues involved in glucose-ring recognition and the glutamic acid that served as a nucleophile during catalysis are conserved. According to the claimed invention the improved catalytic efficiency of the I1 myrosinase is correlated to its pI value (pI=7.90) and the overall positively charged surface (FIG. 8) that contributes to better structural stability.\nas §1, §2, §3"}, "[3]": {"conditions": "other: pH 6.0, 37° C., pH 6.0, 37.0 °C"}, "[4]": {"conditions": "other: pH 6.5, 37° C., pH 6.5, 37.0 °C"}, "[5]": {"conditions": "other: pH 7.4, 34° C., pH 7.4, 34.0 °C"}, "[6]": {"conditions": "other: pH 7.4, 37° C., pH 7.4, 37.0 °C"}, "[7]": {"conditions": "other: pH 7.4, 40° C., pH 7.4, 40.0 °C"}, "[8]": {"conditions": "other: pH 8.0, 37° C., pH 8.0, 37.0 °C"}}, "data": [{"protein": "Brevicoryne brassicae myrosinase BMY1 (Brevicoryne brassicae) (protein) MDYKFPKDFMFGTSTASYQIEGGWNEDGKGENIWDRLVHTSPEVIKDGTNGDIACDSYHKYKEDVAIIKDLNLKFYRFSISWARIAPSGVMNSLEPKGIAYYNNLINELIKNDIIPLVTMYHWDLPQYLQDLGGWVNPIMSDYFKEYARVLFTYFGDRVKWWITFNEPIAVCKGYSIKAYAPNLNLKTTGHYLAGHTQLIAHGKAYRLYEEMFKPTQNGKISISISGVFFMPKNAESDDDIETAERANQFERGWFGHPVYKGDYPPIMKKWVDQKSKEEGLPWSKLPKFTKDEIKLLKGTADFYALNHYSSRLVTFGSDPNPNFNPDASYVTSVDEAWLKPNETPYIIPVPEGLRKLLIWLKNEYGNPQLLITENGYGDDGQLDDFEKISYLKNYLNATLQAMYEDKCNVIGYTVWSLLDNFEWFYGYSIHFGLVKIDFNDPQRTRTKRESYTYFKNVVSTGKP", "values": [{"measurement": "Km", "setting": "[1]; [3]", "result": "153 ± 17", "unit": "µM"}, {"measurement": "Km", "setting": "[1]; [4]", "result": "399 ± 86", "unit": "µM"}, {"measurement": "Km", "setting": "[1]; [5]", "result": "76 ± 6", "unit": "µM"}, {"measurement": "Km", "setting": "[1]; [6]", "result": "67 ± 1", "unit": "µM"}, {"measurement": "Km", "setting": "[1]; [7]", "result": "342 ± 67", "unit": "µM"}, {"measurement": "Km", "setting": "[1]; [8]", "result": "217 ± 87", "unit": "µM"}]}, {"protein": "Armoracia rusticana myrosinase I1, SEQ ID NO: 6 (Armoracia rusticana) (protein, elsewhere used as YebF-I1 fusion) QNVCNPACKAKEPFNCDNTLTFNQTGFPKNFTFGAATSAYQIEGAAHRALNGWDYFTHRYPEKVPDRSSGDLACDSYDLYKDDVKLLKRMNVQAYRLSIAWSRVLPKGRLIGGVDENGITYYNNLINELKANGIEPYVTIFHWDVPQTLEDEYGGFLSPRIVEDFTNFAELLFQRFGDRVKFWITLNQPYSLATKGYGDGSYPPGRCTDCEFGGDSGTEPYIVAHHQLLAHAETVSLYRKRYQKFQGGKIGTTLIGRWFQPLNQTSNLDKAAAKRAFDFFVGWFLDPLVYGEYPKIMKEMVGDRMPKFTPQESDLVKGSLDFLGLNYYVTQYATDAPPSIPTQPSAITDPRVTLGYYRNGIPIGVQAASFVYYPTGFRQILNHIKDNYKNPLTYITENGVADFGNLTLANALADIGRIQNHCSHLSCLKCAIADGCNVGGYFAWSFMDNYEFGNGYTLRFGMNWVNFTNPADRKQKDSGKWFSKFLAK", "values": [{"measurement": "Km", "setting": "[2]; [3]", "result": "192 ± 40", "unit": "µM"}, {"measurement": "Km", "setting": "[2]; [4]", "result": "183 ± 19", "unit": "µM"}, {"measurement": "Km", "setting": "[2]; [5]", "result": "49 ± 4", "unit": "µM"}, {"measurement": "Km", "setting": "[2]; [6]", "result": "87 ± 7", "unit": "µM"}, {"measurement": "Km", "setting": "[2]; [7]", "result": "87 ± 9", "unit": "µM"}, {"measurement": "Km", "setting": "[2]; [8]", "result": "192 ± 17", "unit": "µM"}]}]}
